# Measured values taken from patent EP1260521B1.
# Legend:
# [1] = target: membrane IgE on U266 B1 cells (human) (UniProt P01854); experiment: FACS on U266 B1 cells
# [2] = target: FCEH-bound IgE (human IgE loaded on FcERI alpha) (human) (UniProt P01854); experiment: cell-based or functional assay
# human IgE (human) = human IgE (human) (UniProt P01854); experiment: 50% inhibition assay of IgE binding to FCEH
EC50 [1] [µg/mL],PBL Histamine Release (EC50) [2] [µg/mL],IC50 (human IgE (human)) [µg/mL],Var. X / IgL1H1 (human IgE (human)),Var. X / MaE11 (human IgE (human)),Binder
0.15,> 100,0.449,0.06,1,"MaE 11 (antibody, from another filing, mouse IgG1, V domains shown) VH: DVQLQESGPGLVKPSQSLSLACSVTGYSITSGYSWNWIRQFPGNKLEWMGSITYDGSSNYNPSLKNRISVTRDTSQNQFFLKLNSATAEDTATYYCARGSHYFGHWHFAVWGAGTTVTVSS VL: DIVLTQSPASLAVSLGQRATISCKASQSVDYDGDSYMNWYQQKPGQPPILLIYAASYLGSEIPARFSGSGSGTDFTLNIHPVEEEDAATFYCQQSHEDPYTFGAGTKLEIK"
1,> 10,,,,"MaE 13 (antibody, from another filing, mouse IgG1, V domains shown) VH: DVQLQESGPGLVKPSQSLSLTCTVTGYTITSDNAWNWIRQFPGNKLEWMGYINHSGTTSYNPSLKSRISITRDTSKNQFFLQLNSVTTEDTATYYCAWVVAYAMDYWGQGTSVTVSS VL: DIVMTQSQKFMSTSVGDRVSVTCKASQNVSSNVAWYQQKPGQSPKALIYSASYRYSGVPDRFTGSGSGTDFTLTISNVQSEDLAEYFCQQYYTYPLYTFGGGTKLEIKR"
6,> 100,,,,"MaE 15 (antibody, from another filing, mouse IgG1, V domains shown) VH: DVQHQESEPDLVKPSQSLSLTCTVTGYSITSGYNRHWIRQFPGNKLEWMGYIHYSGSTNYNPSLKRRISITRDTSKNQFFLQLNSVTTEDTATYYCARGSIYYYGSRYRYFDVWGAGTTVTVSS VL: DIQLTQSPASLAVSLGQRATISCKASQSVDYDGDSYMNWYQQKPGQPPKLLIYAASNLESGIPARFSGSGSGTDFTLNIHPVEEEDAATYYCQQSNEDPFTFGAGT"
